Measured values: patent publication US20190144550A1 (Pfizer, published 2019)

Legend:
[1] = target: T1, 8-histidine tagged recombinant wild-type protein EGFRwt (UniProt P00533 25-645, limits assumed); experiment: SPR, captured by anti-human Fc, 25 C
T1 construct: not shown: 8-histidine tag

[2] = target: T2, Monomeric 8-histidine tagged human EGFRvIII extracellular domain (human, UniProt P00533 298-645); experiment: SPR, scFv-Fc captured by anti-human Fc, 37 C
T2 construct: Analyte in all SPR assays; not shown: 8-histidine tag
Experimental: The scFv fragment was then fused to human IgG1 Fc moiety to facilitate recombinant expression and purification. Affinities of the scFv-Fc fusion proteins were measured at 37° C. on a surface plasmon resonance Biacore™ T200 biosensor equipped with an anti-human Fc coupled CM4 sensor chip (GE Healthcare Inc., Piscataway, N.J.) as described above. scFv-Fc proteins were captured by anti-human Fc. Monomeric 8-histidine tagged human EGFRvIII extracellular domain was then injected as the analyte at 10-fold dilution series starting at 1000 nM.

Row | Binder | binding result [1] | Kd [2] [nM] | koff [2] [s⁻¹] | kon [2] [M⁻¹ s⁻¹]
1 | C6.HL scFv-Fc protein (Fc fusion, HL: heavy-chain variable domain at the N-terminus; not shown: human IgG1 Fc moiety) QVQLVQSGAEVKKPGSSVKVSCKASGDTFSSNAISWVRQAPGQGLEWMGVIIPIFGTADYAQKFQGRVTITADESTSTAYMELSSLRSEDTAVYYCARHTYHEYAGGYYGGAMDPWGQGTLVTVSSGGGGSGGGGSGGGGSGGGGSELQSVLTQPPSASGTPGQRVTISCSGSSSNIGSNYVYWYQQLPGTAPKILIYRNNQRPSGVPDRFSGSKSGTSASLAISGLRSEDEADYYCAAWDDNLSGWVFGTGTKLTVL | no binding (tested: 1000 nM) | 1060 | 0.02 | 19000
2 | 14C11.LH scFv-Fc protein (Fc fusion, LH: light-chain variable domain at the N-terminus; not shown: human IgG1 Fc moiety) EIVMTQSPATLSVSPGERATLSCRASQSVSNNLAWYQQKPGQAPRLLIYGASTRATGVPARFSGSDSGTEFSLTISSLQSEDFAVYFCQQYKDWPFTFGPGTKVEIKGGGGSGGGGSGGGGSGGGGSQVTLKESGPVLVKPTETLTLTCTVSGFSLNNARMGVSWIRQPPGKALEWFAHIFSTDEKSFRTSLRSRLTLSKDTSKSQVVLTMTNMDPVDTATYYCARDSSNYEGYFDYWGQGILVTVSS | no binding (tested: 1000 nM) | 136 | 0.0065 | 48000
3 | 14C11.HL scFv-Fc protein (Fc fusion, HL: heavy-chain variable domain at the N-terminus; not shown: human IgG1 Fc moiety) QVTLKESGPVLVKPTETLTLTCTVSGFSLNNARMGVSWIRQPPGKALEWFAHIFSTDEKSFRTSLRSRLTLSKDTSKSQVVLTMTNMDPVDTATYYCARDSSNYEGYFDYWGQGILVTVSSGGGGSGGGGSGGGGSGGGGSEIVMTQSPATLSVSPGERATLSCRASQSVSNNLAWYQQKPGQAPRLLIYGASTRATGVPARFSGSDSGTEFSLTISSLQSEDFAVYFCQQYKDWPFTFGPGTKVEIK | no binding (tested: 1000 nM) | 104 | 0.0043 | 42000
4 | 26B9.HL scFv-Fc protein (Fc fusion, HL: heavy-chain variable domain at the N-terminus; not shown: human IgG1 Fc moiety) EVQLVESWGVLVKPGGSLRLSCAASGFIFNNAWMSWVRQAPGKGLEWIGRIKSKSDGGTTDYAAPVKDRFTISRDDSKDTLYLQMNGLKTEDTAVYFCTTAPGGPFDYWGQGTLVTVSSGGGGSGGGGSGGGGSGGGGSDIVLTQSPLSLPVTPGEPASISCRSSQSLLHRDGFNYLDWFLQKPGQSPQLLIYLASSRASGVPDRFSGSDSGTDFTLKISRVEAEDVGVYYCMQALQTPITFGQGTRLEIK | no binding (tested: 1000 nM) | 705 | 0.04 | 57000
5 | 26B9.LH scFv-Fc protein (Fc fusion, LH: light-chain variable domain at the N-terminus; not shown: human IgG1 Fc moiety) DIVLTQSPLSLPVTPGEPASISCRSSQSLLHRDGFNYLDWFLQKPGQSPQLLIYLASSRASGVPDRFSGSDSGTDFTLKISRVEAEDVGVYYCMQALQTPITFGQGTRLEIKGGGGSGGGGSGGGGSGGGGSEVQLVESWGVLVKPGGSLRLSCAASGFIFNNAWMSWVRQAPGKGLEWIGRIKSKSDGGTTDYAAPVKDRFTISRDDSKDTLYLQMNGLKTEDTAVYFCTTAPGGPFDYWGQGTLVTVSS | no binding (tested: 1000 nM) | 494 | 0.034 | 69000
6 | h62G7-L6/EQ scFv-Fc protein (Fc fusion, not shown: human IgG1 Fc moiety) DVVMTQSPLSLPVTLGQPASISCKSSQSLLYSNGKTYLNWFQQRPGQSPRRLIYQVSKLDSGVPDRFSGSGSGTDFTLKISRVEAEDVGVYYCGQDTHFPLTFGGGTKVEIKGGGGSGGGGSGGGGSGGGGSQVQLVQSGAEVKKPGASVKVSCKASGYTFTDYTLHWVRQAPGQGLEWMGGIWPITGGTTYNQKFKGRVTMTRDTSTSTVYMELSSLRSEDTAVYYCARGEAQGSWGQGTLVTVSS | no binding (tested: 1000 nM) | 101 | 0.076 | 750000

Binders with a lower Kd [2], results first:

Row | binding result [1] | Kd [2] [nM] | koff [2] [s⁻¹] | kon [2] [M⁻¹ s⁻¹] | Binder
7 | no binding (tested: 1000 nM) | 29.8 | 0.0012 | 41000 | 32A10.LH scFv-Fc protein (Fc fusion, LH: light-chain variable domain at the N-terminus; not shown: human IgG1 Fc moiety) EVVMTQSPATLSVSPGERVTLSCRASQSVSSNFAWYQQRPGQAPRLLLYGATTRATGLPGRFSGSGSGTENILTISSLQSEDFAIYFCQQYKDWPFTFGPGSKVDIKGGGGSGGGGSGGGGSGGGGSQVTLKESGPVLVKPTETLTLTCTVSGFSLSNARMGVSWIRQPPGKALEWLAHIFSTDEKSIRRSLRSRLTLSKDTSKSQVVLTMTNMDPVDTATYFCARDSSNYEGYFDYWGQGTLVTVSS
8 | no binding (tested: 1000 nM) | 24.5 | 0.0012 | 47000 | 32A10.HL scFv-Fc protein (Fc fusion, HL: heavy-chain variable domain at the N-terminus; not shown: human IgG1 Fc moiety) QVTLKESGPVLVKPTETLTLTCTVSGFSLSNARMGVSWIRQPPGKALEWLAHIFSTDEKSIRRSLRSRLTLSKDTSKSQVVLTMTNMDPVDTATYFCARDSSNYEGYFDYWGQGTLVTVSSGGGGSGGGGSGGGGSGGGGSEVVMTQSPATLSVSPGERVTLSCRASQSVSSNFAWYQQRPGQAPRLLLYGATTRATGLPGRFSGSGSGTENILTISSLQSEDFAIYFCQQYKDWPFTFGPGSKVDIK
9 | no binding (tested: 1000 nM) | 18.8 | 0.0011 | 56000 | 42G9.HL scFv-Fc protein (Fc fusion, HL: heavy-chain variable domain at the N-terminus; not shown: human IgG1 Fc moiety) QVTLKESGPVLLKPTETLTLTCTVSGFSLSNPRMGVSWIRQPPGKALEWFAHIFSTDEKSLKLSLRSRLTLSKDTSKSQVVLTMTNMAPVDSATYYCARDSSNYEGYFDFWGQGTLVTVSSGGGGSGGGGSGGGGSGGGGSEVVLTQSPATLSVSPGERATLSCRASQSVRSNLAWYQQKSGQAPRLLIYGSTIRATGVPARFSGSGSGTEFTLTISSLQSEDFAVYYCQQYSDWPFTFGPGTKVDIK
10 | no binding (tested: 1000 nM) | 22.1 | 0.00088 | 40000 | 42G9.LH scFv-Fc protein (Fc fusion, LH: light-chain variable domain at the N-terminus; not shown: human IgG1 Fc moiety) EVVLTQSPATLSVSPGERATLSCRASQSVRSNLAWYQQKSGQAPRLLIYGSTIRATGVPARFSGSGSGTEFTLTISSLQSEDFAVYYCQQYSDWPFTFGPGTKVDIKGGGGSGGGGSGGGGSGGGGSQVTLKESGPVLLKPTETLTLTCTVSGFSLSNPRMGVSWIRQPPGKALEWFAHIFSTDEKSLKLSLRSRLTLSKDTSKSQVVLTMTNMAPVDSATYYCARDSSNYEGYFDFWGQGTLVTVSS
11 | no binding (tested: 1000 nM) | 82.7 | 0.0025 | 30000 | 20B9.LH scFv-Fc protein (Fc fusion, LH: light-chain variable domain at the N-terminus; not shown: human IgG1 Fc moiety) EIVMTQSPATLSVSPGERATLSCRVSQSIGANLAWYQQKFGQAPRLLIYGASTRATGIPVRFSGGGSGTEFTLTISSLQSEDFAIYSCQQYIYWPFTFGPGTTVDIKGGGGSGGGGSGGGGSGGGGSQVTLKESGPVLVKPTETLTLTCTVSGFSLSNARMGVSWIRQPPGKALEWLGHIFSTDEKSYSTSLRGRITISKDTSRGLVVLTLTNMDPVDTATYYCARDSSNYEGYFDFWGPGFLVTVSS
12 | no binding (tested: 1000 nM) | 73.8 | 0.0018 | 24000 | 20B9.HL scFv-Fc protein (Fc fusion, HL: heavy-chain variable domain at the N-terminus; not shown: human IgG1 Fc moiety) QVTLKESGPVLVKPTETLTLTCTVSGFSLSNARMGVSWIRQPPGKALEWLGHIFSTDEKSYSTSLRGRITISKDTSRGLVVLTLTNMDPVDTATYYCARDSSNYEGYFDFWGPGFLVTVSSGGGGSGGGGSGGGGSGGGGSEIVMTQSPATLSVSPGERATLSCRVSQSIGANLAWYQQKFGQAPRLLIYGASTRATGIPVRFSGGGSGTEFTLTISSLQSEDFAIYSCQQYIYWPFTFGPGTTVDIK
